Patent US20120009123A1, “Albumin binding peptide-mediated disease targeting” (ABRAXIS BIOSCIENCE, LLC, priority 2008, published 2012)
Converted amounts (≈) assume the structure as drawn.

Assays:
[1] = test system: squamous cervix (A431) line; assay: cells; conditions: Homo sapiens, A-431, read-out: IC50, in vitro cytotoxicity
[2] = target: human serum albumin (HSA) (Homo sapiens, UniProt P02768); assay: peptide phage display library screening (panning); format: binding; conditions: for assessment of sequence after fourth round of panning: about 100 plaques sequenced, FIG. 11
Procedure: A commercial peptide phage display library (12-mer peptides in M13) was screened for peptides which bind to human serum albumin (HSA) (see FIG. 10). Four rounds of panning were completed as follows:
1. The phage library was screened by coating a 100 ug/ml HSA solution onto the wells of 12-well plate and exposing the wells to 1-2×1011 pfu phage. Bound phage were eluted with a 0.2M Glycine, pH2.2 buffer to yield 15×10^5 pfu/ml (which became 5×1013 pfu/ml after amplification);
2. The second panning was eluted with a 0.2M Glycine, pH 2.2 buffer to yield 12×10^6 pfu/ml (8×1013 pfu/ml after amplification);
3. The third panning was eluted with 250 ug/ml HSA for 1 hr to yield 5×10^5 pfu/ml (2×1012 pfu/ml after amplification); and
4. a fourth panning was eluted with a 0.2M Glycine, pH2.2 buffer to yield 14×10^8 pfu/ml. After the fourth round of panning, about 100 plaques were selected, amplified and sequenced.

[3] = target: binding of albumin to SPARC (Homo sapiens, UniProt P02768); assay: competitive binding assays with SPARC C-terminal cysteine-poor domain peptides; conditions: general statement in the description
Procedure: The 15 mer SPARC C-terminal, cysteine-poor domain-spanning peptides were used in competitive binding assays. Specifically, the SPARC peptides were immobilized onto PVDF-attached 96 well plate in an overnight incubation at 4° C. (5 μg/well). The next day the plate was washed with DPBS and blocked for an hour with 5% Non-fat dry milk in DPBS. Next, 100 μl of DPBS was added to each well except the wells in first row. A vial of Alexa 488-BSA (5 mg) was dissolved with 1.2 ml of 25% HSA. Then, 100 μl of BSA-HSA was mixed with 100 μl of SPARC peptides prepared as 4 mg/ml in DPBS (resulting in a final concentration of the Alexa 488-BSA and peptides in first row of about 200 ug/well each). Serial dilution was made down to each column. The plate was incubated for an hour in a dark place, was washed, and the fluorescence was read. […] To further localize the SPARC albumin binding site SPARC sub-fragments were made (FIG. 8). In particular, peptides #103 ([…]) (SEQ ID NO: 66) and #104 ([…]) are subfragments of the sole active peptide, peptide #47.

[4] = target: T1, albumin binding to SPARC (Homo sapiens, UniProt P09486); assay: follow-up competitive studies of albumin binding to SPARC
T1 construct: Full length, wild-type SPARC (“WT”)
T1 sequence (P09486 18-303): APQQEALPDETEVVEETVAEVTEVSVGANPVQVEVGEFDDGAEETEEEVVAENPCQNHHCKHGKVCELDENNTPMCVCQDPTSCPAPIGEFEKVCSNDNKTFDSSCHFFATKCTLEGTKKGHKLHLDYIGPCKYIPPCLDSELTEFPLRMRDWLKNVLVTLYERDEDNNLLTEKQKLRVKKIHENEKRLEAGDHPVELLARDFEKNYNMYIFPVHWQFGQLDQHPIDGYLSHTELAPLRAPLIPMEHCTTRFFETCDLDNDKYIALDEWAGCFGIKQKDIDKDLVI

[5] = test system: human serum albumin spiked with Alexa fluor 488 conjugated bovine serum albumin; assay: SPARC-albumin interaction: SPARC immobilized on PVDF, fluorescent albumin binding; conditions: for albumin binding: polypeptide immobilized 5 μg/well on PVDF, FIG. 2
Procedure: Full length, wild-type SPARC (“WT”), a SPARC deletion mutant in which the glutamine at residue 3 is deleted (“Q3”) or SPARC treated with Cathepsin K were immobilized on PVDF membrane and exposed to decreasing concentrations of human serum albumin spiked with Alexa fluor 488 conjugated bovine serum albumin.
In the initial experiment, full length, wild-type SPARC and “Q3” mutant SPARC polypeptides were immobilized onto PVDF-attached 96 well plate by overnight at 4° C. incubation (5 μg/well). The next day the plate was washed with DPBS and blocked for an hour with 5% non-fat dry milk in DPBS. 100 μl of DPBS was added to each well. A vial of Alexa 488-BSA (5 mg) was dissolved with 1.2 ml of 25% Human Serum Albumin (“HSA”) and 100 μl of BSA-HSA mix was added to wells of first row of plate (resulting in a final concentration of Alexa 488-BSA in first row becomes about 200 μg/well). Serial dilutions were made down each column and the plate was incubated for an hour in a dark place. After 1 hr incubation, the membrane was washed with PBS and the amount of albumin remained quantified by fluorescent plate reader.
Thirty μg of recombinant human (“rh”) SPARC was incubated with 0.4 μg of Cathepsin K for 10, 30, 60 and 120 minutes. […] Accordingly, overlapping 15 mer peptides were prepared which spanned the SPARC C-terminal, cysteine-poor domain (FIG. 6).

[6] = target: T2, human serum albumin (human, UniProt P02768 25-609); assay: M13 12-mer phage display, four rounds of panning on coated HSA, sequencing of about 100 plaques
T2 construct: also called HSA; human albumin

Work on `CC(=O)O[C@H]1C(=O)[C@@]2(C)[C@H]([C@H](OC(=O)c3ccccc3)[C@]3(O)C[C@H](OC(=O)[C@H](O)[C@@H](NC(=O)c4ccccc4)c4ccccc4)C(C)=C1C3(C)C)[C@]1(OC(C)=O)CO[C@@H]1C[C@@H]2O` [TAX] yielded an IC50 [1] of 0.012 µg/mL (≈ 0.0141 µM).

For “KNHGATRTTRAS [SEQ ID NO: 2, called Peptide 47 in b190]”, the “assessment of sequence after fourth round of panning” value [2] was “probably be a true ligand” and the “binding to human albumin” value ([2]; general statement in the description) was “binds human albumin with great avidity”.

In the case of “MYIFPVHWQFGQLDQ [peptide #47, 15 mer, amino acids 209-223 of the human SPARC protein]”, the “binding to human albumin” value [3] is reported as “binds human albumin with great avidity”.

For WPHHHHTRLSTV, the “assessment of sequence after fourth round of panning” value [2] was “nonspecific binding”.

B1: SPARC: Secreted Protein, Acidic, Rich in Cysteines; full length, wild-type, 303 amino acid glycoprotein (protein)
chain: T1 sequence (P09486 18-303)
For B1, the “IC50 of albumin binding to SPARC” value [4] was 5%, the “albumin binding after cathepsin K digest” value ([5]; cathepsin K digest 60 min, FIG. 5) was “obliterated” and the albumin binding [5] was “bind albumin”.

B2: KNHGATRTTRAS (Peptide 47; SEQ ID NO: 2) (peptide)
peptide: KNHGATRTTRAS
B2: binds [6].

B3: Q3: SPARC deletion mutant in which the glutamine at residue 3 is deleted (protein)
chain: APQEALPDETEVVEETVAEVTEVSVGANPVQVEVGEFDDGAEETEEEVVAENPCQNHHCKHGKVCELDENNTPMCVCQDPTSCPAPIGEFEKVCSNDNKTFDSSCHFFATKCTLEGTKKGHKLHLDYIGPCKYIPPCLDSELTEFPLRMRDWLKNVLVTLYERDEDNNLLTEKQKLRVKKIHENEKRLEAGDHPVELLARDFEKNYNMYIFPVHWQFGQLDQHPIDGYLSHTELAPLRAPLIPMEHCTTRFFETCDLDNDKYIALDEWAGCFGIKQKDIDKDLVI
In the case of B3, the albumin binding [5] is reported as “bind albumin”.
